Experiments:
[1] = molecular target: PstA (PII-like signal transduction protein A) from Listeria monocytogenes (Listeria monocytogenes); assay: SEC; gel filtration column (S-300, GE Healthcare) of purified LmPstA
[2] = molecular target: PstA (PII-like signal transduction protein A) from Listeria monocytogenes (Listeria monocytogenes); assay: crystal structure; LmPstA (20 mg/mL) cocrystallised with 2.5 mmol/L c-di-AMP; sitting drop, 20°C, 12% PEG3350, 0.1 mol/L sodium malonate pH 4.0; 1.6 Å; trimer in the asymmetric unit
[3] = molecular target: PstA (PII-like signal transduction protein A) from Listeria monocytogenes (Listeria monocytogenes); assay: crystal structure; apo LmPstA (10 mg/mL); sitting drop, 20°C, 20% PEG3350, 0.1 mol/L bis-Tris pH 5.5, 0.1 mol/L ammonium acetate; 2.9 Å; trimer in the asymmetric unit
PstA (LmPstA) [4] = molecular target: T1, PstA (LmPstA) (Listeria monocytogenes, UniProt Q8Y3Y7, N41A); assay: DRaCALA binding titration with […]-c-di-AMP (saturation not achieved)
T1 construct: gene lmo2692; pstA N41A in pET20b, C-terminal His-tag

PstA (LmPstA) [5] = molecular target: T2, PstA (LmPstA) (Listeria monocytogenes, UniProt Q8Y3Y7, F36A); assay: DRaCALA binding titration with […]-c-di-AMP
T2 construct: gene lmo2692; pstA F36A in pET20b, C-terminal His-tag

Row | Compound | stoichiometry N [1] | stoichiometry N [2] | stoichiometry N [3] | Kd (PstA (LmPstA) [4]) [µM] | Kd (PstA (LmPstA) [5]) [µM]
1 | PstA (PII-like signal transduction protein A) from Listeria monocytogenes (natural protein) | 3 | 3 | 3 |  | 
2 | Nc1ncnc2c1ncn2[C@@H]1O[C@@H]2COP(=O)(O)O[C@H]3[C@@H](O)[C@H](n4cnc5c(N)ncnc54)O[C@@H]3COP(=O)(O)O[C@H]2[C@H]1O [c-di-AMP] |  |  |  | ~140 | 7

From article PMC4475381, “Molecular basis for the recognition of cyclic-di-AMP by PstA, a PII-like signal transduction protein” (MicrobiologyOpen, 2015)
